Source: patent US20110124564A1, “NUCLEOLIN-BINDING PEPTIDES, NUCLEOLIN- BINDING LYTIC PEPTIDES, FUSION CONSTRUCTS AND METHODS OF MAKING AND USING SAME” (ESPERANCE PHARMACEUTICALS, INC., published 2011)
Read-outs that look alike come from different tables or passages of the source. Residues, ends and D or L forms follow the SMILES beside them.

Key:
human red blood cells = assay: Hemolytic activity; type: cell-based
Description: Hemolytic activity was studied by incubating the fusion constructs with human red blood cells at concentrations of 0.01, 0.1, 1, 10 and 50 μM for 2 hours. Saline and 0.1% Triton served as controls.
Hemolytic activity of the compounds was studied by incubating EP-301 and EP-302 with human red blood cells at concentrations of 0.01, 0.1, 1, 10 and 50 μM for 2 hours.

[1] = system: MDA-MB-435S breast cancer cells; type: cell-based, human
Description: Twelve different fusion constructs were analyzed for anti-cancer activity in vitro against MDA-MB-435S breast cancer cells and for hemolytic activity in vitro to human red blood cells. Fusion constructs of the following sequence were tested:
(§1) The peptide conjugates were freshly dissolved in saline and added into cancer cell seeded multi-well plates at increasing concentrations of 0, 0.001, 0.01, 0.1, 1, 2, 5, 10 and 100 μM. Incubations were conducted for 4 h at 37° C. Cell viability was determined using formazan conversion assays (MTT assays). Controls were treated with USP saline or 0.1% TritonX-100™ as reference for 0 and 100% cell death, respectively. Cytotoxicity was evaluated as an IC50 value.

[2] = system: MDA-MB-435S breast cancer cells; type: cell-based, human; settings: 24 h
Description: as §1, with “EP-301 and EP-302 were analyzed for anti-cancer activity in vitro in a time course experiment against MDA-MB-435S breast cancer cells. EP-301 and EP-302” for “The peptide conjugates”, “0.25, 0.5, 1, 2, 4, 6 h or 24” for “4”, “value derived for EP-301 and EP-302 at each time point.” for “value.”

[3] = biological target: T1, nucleolin expressed on the surface of human cancer cell lines (human, UniProt P19338); assay: cell-based or functional assay
[4] = biological target: T1, nucleolin expressed on the surface of …; assay: cell-based or functional assay; remark: listed apart in the source
[5] = biological target: T1, nucleolin expressed on the surface of …; assay: cell-based or functional assay; remark: listed apart in the source
[6] = biological target: T1, nucleolin expressed on the surface of …; assay: cell-based or functional assay; remark: listed apart in the source
[7] = biological target: nucleolin on CHO (Hamster Ovary) cells (hamster)

## CC(C)C[C@H](NC(=O)[C@H](CCCNC(=N)N)NC(=O)[C@H](C)NC(=O)[C@H](CO)NC(=O)[C@H](CCCNC(=N)N)NC(=O)[C@H](CCCNC(=N)N)NC(=O)[C@H](CCC(N)=O)NC(=O)[C@H](CC(C)C)NC(=O)[C@H](CCCNC(=N)N)NC(=O)[C@H](CCCCN)NC(=O)[C@H](C)NC(=O)[C@H](Cc1ccccc1)NC(=O)[C@H](CCCCN)NC(=O)[C@H](CCCCN)NC(=O)[C@H](C)NC(=O)[C@H](Cc1ccccc1)NC(=O)[C@H](CCCCN)NC(=O)[C@H](C)NC(=O)[C@H](Cc1ccccc1)NC(=O)[C@H](CCCCN)NC(=O)[C@H](CCCCN)NC(=O)[C@H](C)NC(=O)[C@H](Cc1ccccc1)NC(=O)[C@H](CCCCN)NC(=O)[C@H](C)NC(=O)[C@H](Cc1ccccc1)NC(=O)[C@@H](N)CCCCN)C(=O)N[C@@H](CO)C(=O)N[C@@H](C)C(=O)N[C@@H](CCCCN)C(=O)O (H-KFAKFAKKFAKFAKKFAKRLQRRSARLSAK-OH)
Human red blood cells; human red blood cells, 2 hours
  HA50: 56 µM
Human red blood cells; human red blood cells, 2 hours, listed as KFAKFAKKFAKFAICKFAKR19LQRRSARLSAK30
  HA50: 56 ± 8.5 µM
[1]; MDA-MB-435S, 4 h at 37° C, MTT, read-out: IC50
  IC50: 2.2 ± 0.3 µM

## CC(C)C[C@H](NC(=O)[C@H](CCCNC(=N)N)NC(=O)[C@H](C)NC(=O)[C@@H](NC(=O)[C@H](CCCCN)NC(=O)[C@H](C)NC(=O)[C@H](Cc1ccccc1)NC(=O)[C@H](CCCCN)NC(=O)[C@H](CCCCN)NC(=O)[C@H](C)NC(=O)[C@H](Cc1ccccc1)NC(=O)[C@H](CCCCN)NC(=O)[C@H](C)NC(=O)[C@H](Cc1ccccc1)NC(=O)[C@H](CCCCN)NC(=O)[C@H](CCCCN)NC(=O)[C@H](C)NC(=O)[C@H](Cc1ccccc1)NC(=O)[C@H](CCCCN)NC(=O)[C@H](C)NC(=O)[C@H](Cc1ccccc1)NC(=O)[C@@H](N)CCCCN)C(C)C)C(=O)N[C@@H](CCC(N)=O)C(=O)N[C@@H](CCCNC(=N)N)C(=O)N[C@@H](CCCNC(=N)N)C(=O)N[C@@H](Cc1ccccc1)C(=O)N[C@@H](C)C(=O)O (H-KFAKFAKKFAKFAKKFAKVARLQRRFA-OH)
Human red blood cells
  HA50: Not hemolytic
[1]; 4 h
  IC50: 0.8 ± 0.16 µM

## CC(C)C[C@H](NC(=O)[C@H](CCCNC(=N)N)NC(=O)[C@H](C)NC(=O)[C@H](CO)NC(=O)[C@H](CCCNC(=N)N)NC(=O)[C@H](CCCNC(=N)N)NC(=O)[C@H](CCC(N)=O)NC(=O)[C@@H]1CCCN1C(=O)[C@H](CCC(=O)O)NC(=O)[C@H](CC(=O)O)NC(=O)[C@H](CCCCN)NC(=O)[C@H](CCCCN)NC(=O)[C@H](C)NC(=O)[C@H](Cc1ccccc1)NC(=O)[C@H](CCCCN)NC(=O)[C@H](CCCCN)NC(=O)[C@H](C)NC(=O)[C@H](Cc1ccccc1)NC(=O)[C@H](CCCCN)NC(=O)[C@H](C)NC(=O)[C@H](Cc1ccccc1)NC(=O)[C@H](CCCCN)NC(=O)[C@H](CCCCN)NC(=O)[C@H](C)NC(=O)[C@H](Cc1ccccc1)NC(=O)[C@H](CCCCN)NC(=O)[C@H](C)NC(=O)[C@H](Cc1ccccc1)NC(=O)[C@@H](N)CCCCN)C(=O)N[C@@H](CO)C(=O)N[C@@H](C)C(=O)N[C@@H](CCCCN)C(=O)O [EP-301] (H-KFAKFAKKFAKFAKKFAKKDEPQRRSARLSAK-OH)
Human red blood cells
  HA50: Not hemolytic
[2]
  IC50: 12 µM
[1]; 4 h
  IC50: 64.8 µM

## RVRLQRRSARLSAK [R1VRLQRRSARLSAK14]
[3]
  IC50 of cytotoxicity (MTT), MDA-MB-435S breast cancer cells, 120 h: 1.9 µM

## HARLQRRSARLSAK [H1ARLQRRSARLSAK14]
[3]
  IC50 of cytotoxicity (MTT), MDA-MB-435S breast cancer cells, 120 h: 3.2 µM

## RARLQRRSARL [R1ARLQRRSARL11]
[3]
  IC50 of cytotoxicity (MTT), MDA-MB-435S breast cancer cells, 120 h: 5.4 µM

## RARLQRRSARLS [R1ARLQRRSARLS12]
[3]
  IC50 of cytotoxicity (MTT), MDA-MB-435S breast cancer cells, 120 h: 6.5 µM

## KFAKFAKKFAKFAKKFAKRARLQRRSARLSAK [EP-302]
[4]
  IC50 of cytotoxicity (MTT), A549 (Lung) cells, 6 h: 4.3 µM
  IC50 of cytotoxicity (MTT), A549 (Lung) cells, 24 h: 2.4 µM
  IC50 of cytotoxicity (MTT), DU145 (Prostate) cells, 6 h: 3.1 µM
  IC50 of cytotoxicity (MTT), DU145 (Prostate) cells, 24 h: 5.1 µM
  IC50 of cytotoxicity (MTT), Daudi (NHL) cells, 6 h: 3.2 µM
  IC50 of cytotoxicity (MTT), Daudi (NHL) cells, 24 h: 2.5 µM
  IC50 of cytotoxicity (MTT), HL60 (Acute Myeloid Leukemia) cells, 24 h: 0.5 µM
  IC50 of cytotoxicity (MTT), HT 29 (Colon) cells, 6 h: 45.8 µM
  IC50 of cytotoxicity (MTT), HT 29 (Colon) cells, 24 h: 26.2 µM
  IC50 of cytotoxicity (MTT), HT 116(Colon) cells, 6 h: 6.7 µM
  IC50 of cytotoxicity (MTT), HT 116(Colon) cells, 24 h: 4.8 µM
  IC50 of cytotoxicity (MTT), K562 (Chronic Myeloid Leukemia) cells, 24 h: 2.8 µM
  IC50 of cytotoxicity (MTT), LoVo (Colon) cells, 6 h: 14.1 µM
  IC50 of cytotoxicity (MTT), LoVo (Colon) cells, 24 h: 12.5 µM
  IC50 of cytotoxicity (MTT), MCF-7 (Breast) cells, 6 h: 5.5 µM
  IC50 of cytotoxicity (MTT), MCF-7 (Breast) cells, 24 h: 6.4 µM
  IC50 of cytotoxicity (MTT), MDA-MB-231 (Breast) cells, 6 h: 4.6 µM
  IC50 of cytotoxicity (MTT), MDA-MB-231 (Breast) cells, 24 h: 3.6 µM
  IC50 of cytotoxicity (MTT), MDA-MB-435S (Breast) cells, 6 h: 1.4 µM
  IC50 of cytotoxicity (MTT), MDA-MB-435S (Breast) cells, 24 h: 1.7 µM
  IC50 of cytotoxicity (MTT), MV4-11(Acute Myeloid Leukemia) cells, 24 h: 0.5 µM
  IC50 of cytotoxicity (MTT), MiaPaCa (Pancreas) cells, 6 h: 2.1 µM
  IC50 of cytotoxicity (MTT), MiaPaCa (Pancreas) cells, 24 h: 1.9 µM
  IC50 of cytotoxicity (MTT), OVCAR-3 (Ovary) cells, 6 h: 5.2 µM
  IC50 of cytotoxicity (MTT), PC-3 (Prostate) cells, 6 h: 3.3 µM
  IC50 of cytotoxicity (MTT), PC-3 (Prostate) cells, 24 h: 3.2 µM
  IC50 of cytotoxicity (MTT), SKOV-3 (Ovary) cells, 6 h: 5.1 µM
  IC50 of cytotoxicity (MTT), SKOV-3 (Ovary) cells, 24 h: 5.2 µM
[5]
  IC50 of cytotoxicity (MTT), MDA-MB-435S breast cancer cells, time course, 30 minutes: 2.3 µM
[6]
  IC50 of cytotoxicity (MTT), MDA-MB-435S breast cancer cells, 4 h: 0.9 µM
[7]
  IC50 of cytotoxicity (MTT), CHO (Hamster Ovary) cells, 6 h: 3.1 µM
  IC50 of cytotoxicity (MTT), CHO (Hamster Ovary) cells, 24 h: 3.7 µM

## KFAKFAKKFAKFAKKFAKKDEPQRRSARLSAK [EP-301]
[5]
  IC50 of cytotoxicity (MTT), MDA-MB-435S breast cancer cells, time course, 30 minutes: 48 µM
  IC50 of cytotoxicity (MTT), MDA-MB-435S breast cancer cells, time course, 6 h: > 40 µM
  IC50 of cytotoxicity (MTT), MDA-MB-435S breast cancer cells, time course, 24 h: 12 µM
[6]
  IC50 of cytotoxicity (MTT), MDA-MB-435S breast cancer cells, 4 h: 64.8 µM

## KDEPQRRSARLSAK [F3-14 mer fragment]
[3]
  IC50 of cytotoxicity (MTT), MDA-MB-435S breast cancer cells, 120 h: 11.1 µM

## HAHLQRRSARLSAK [H1AHLQRRSARLSAK14]
[3]
  IC50 of cytotoxicity (MTT), MDA-MB-435S breast cancer cells, 120 h: 4.7 µM

## RARLQRRSARLSAK
[3]
  IC50 of cytotoxicity (MTT), MDA-MB-435S breast cancer cells, 120 h: 2.4 µM
